B1: VLX9 IgG (murine): murine VLX9 anti-CD47 antibody (antibody, V domains shown)
VH: QVQLQQFGAELAKPGASVQMSCKASGYTFTNYWIHWVKQRPGQGLEWIGYTDPRTDYTEYNQKFKDKATLAADRSSSTAYMRLSSLTSEDSAVYYCAGGGRVGLGYWGHGSSVTVSS
VL: DVFMTQTPLSLPVSLGDQASISCRSSQNIVQSNGNTYLEWYLQKPGQSPKLLIYKVFHRFSGVPDRFSGSGSGTDFTLKISRVEAEDLGVYYCFQGSHVPWTFGGGTKVEIK
B2: VLX9 IgG2 (xi): chimeric (murine-human) anti-CD47 mAb, human IgG2 (antibody)
heavy: QVQLQQFGAELAKPGASVQMSCKASGYTFTNYWIHWVKQRPGQGLEWIGYTDPRTDYTEYNQKFKDKATLAADRSSSTAYMRLSSLTSEDSAVYYCAGGGRVGLGYWGHGSSVTVSSASTKGPSVFPLAPCSRSTSESTAALGCLVKDYFPEPVTVSWNSGALTSGVHTFPAVLQSSGLYSLSSVVTVPSSNFGTQTYTCNVDHKPSNTKVDKTVERKCCVECPPCPAPPVAGPSVFLFPPKPKDTLMISRTPEVTCVVVDVSHEDPEVQFNWYVDGVEVHNAKTKPREEQFNSTFRVVSVLTVVHQDWLNGKEYKCKVSNKGLPAPIEKTISKTKGQPREPQVYTLPPSREEMTKNQVSLTCLVKGFYPSDIAVEWESNGQPENNYKTTPPMLDSDGSFFLYSKLTVDKSRWQQGNVFSCSVMHEALHNHYTQKSLSLSPGK
light: DVFMTQTPLSLPVSLGDQASISCRSSQNIVQSNGNTYLEWYLQKPGQSPKLLIYKVFHRFSGVPDRFSGSGSGTDFTLKISRVEAEDLGVYYCFQGSHVPWTFGGGTKVEIKRTVAAPSVFIFPPSDEQLKSGTASVVCLLNNFYPREAKVQWKVDNALQSGNSQESVTEQDSKDSTYSLSSTLTLSKADYEKHKVYACEVTHQGLSSPVTKSFNRGEC

How the values were obtained:
[1] = target: T1, recombinant human CD47 (His-CD47) (Homo sapiens, UniProt Q08722); assay: Solid-phase His-CD47 ELISA at pH 6 or pH 8; format: binding; settings: pH 6.0 vs pH 8.0
T1 construct: His; purchased Acro Biosystems
T1 sequence (Q08722 19-323): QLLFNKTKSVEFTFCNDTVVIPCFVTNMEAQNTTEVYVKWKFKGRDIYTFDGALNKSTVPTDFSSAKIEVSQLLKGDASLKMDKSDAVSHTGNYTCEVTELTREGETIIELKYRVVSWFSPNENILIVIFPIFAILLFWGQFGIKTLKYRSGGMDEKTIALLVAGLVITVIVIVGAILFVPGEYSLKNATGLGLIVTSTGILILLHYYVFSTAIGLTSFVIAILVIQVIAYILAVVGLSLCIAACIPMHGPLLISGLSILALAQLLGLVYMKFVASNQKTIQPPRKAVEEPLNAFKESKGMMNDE
Procedure: Binding by soluble anti-CD47 mAbs to immobilized recombinant human CD47 and to human CD47 expressed on cells was measured in vitro. For the in vitro binding to recombinant CD47, His-CD47 (AcroBiosystems) was adsorbed to high-binding microtiter plates overnight at 4° C. The wells were washed and varying concentrations of anti-CD47 mAbs were added to the wells in buffers with a of either pH 6 or pH 8 for 1 hour. The wells were washed and then incubated with HRP-labelled secondary antibody for 1 hour at pH 6 or pH 8 followed by addition of peroxidase substrate. The apparent affinities were calculated using non-linear fit model (Graphpad Prism).

Jurkat cells = assay: In vitro cell death assay (annexin V / 7-AAD); format: cell-based, human; settings: 1 μg/ml soluble mAb, 24 hrs
Procedure: Induction of cell death by soluble anti-CD47 mAbs is measured in vitro (Manna et al. (2003) J. Immunol. […] (7): 3544-53, Kikuchi et al. Biochem Biophys Res. Commun. 315: 912-8, 2004), Pettersen et al. J. Immuno. 162: 7031-7040, 1999), Manna et al. Cancer Research, 64: 1026-1036, 2004). For the in vitro cell death assay, 1×10^5 transformed human T cells (Jurkat cells) were incubated with soluble humanized VLX4, VLX8, and VLX9 CD47 mAbs (1 μg/ml) for 24 hrs at 37° C. As cell death occurs, mitochondrial membrane potential is decreased, the inner leaflet of the cell membrane is inverted, exposing phosphatidylserines (PS), and propidium iodide (PI) or 7-aminoactinomycin D (7-AAD) is able to incorporate into nuclear DNA. In order to detect these cellular changes, cells were then stained with fluorescently labelled annexin V and PI or 7-aminoactinomycin D (7-AAD) (BD Biosciences) and the signal detected using an Accuri C6 flow cytometer (BD Biosciences). The increase in PS exposure is determined by measuring the percent increase in annexin V signal and the percent of dead cells by measuring the percent increase in PI or 7-AAD signal. Annexin V positive (annexin V+) or annexin V positive/7-AAD negative (annexin V^+/7-AAD^−) cells are observed in early stages of cell death and annexin V positive/7-AAD positive (annexin V^+/7-AAD^+) cells are dead cells. […]

[2] = test system: human red blood cells (hRBCs); assay: Hemagglutination of washed hRBCs; format: cell-based; settings: mAb concentrations 50 μg/ml down to 0.3 ng/ml or 0.3 pg/ml
Procedure: Hemagglutination of hRBCs was assessed following incubation of hRBCs with various concentrations of chimeric and humanized VLX4, VLX8, and VLX9 mAbs in vitro essentially as described by Kikuchi et al. Biochem Biophys Res. Commun (2004) 315:912-918. Blood was obtained from healthy donors, diluted (1:50) in PBS/1 mM EDTA/BSA and washed 3 times with PBS/EDTA/BSA. hRBCs were added to U-bottomed 96 well plates with equal volumes of the antibodies (75 μl of each) and incubated for 3 hrs at 37° C. and overnight at 4° C.

Molecule	pH dependence of binding to His-CD47 [1]	PS exposure and cell death (annexin V+, annexin V+/7-AAD−, annexin V+/7-AAD+) (Jurkat cells)	hemagglutination of hRBCs (in words) [2]
B1	did not display pH dependence	–	–
B2	–	induced increased PS exposure and cell death	caused visible hemagglutination

— patent publication US20190309066A1, “COMBINATION THERAPY FOR THE TREATMENT OF SOLID AND HEMATOLOGICAL CANCERS” (Arch Oncology, Inc., priority 2017, published 2019)
